The source of these data is US20230174635A1 (UCB, published 2023).

Residue numbers refer to the chain shown, from its start.

Test in all cases: cell-based or functional assay
The target of one test is T1, mouse Gremlin (mouse, UniProt O70326 25-184).
T1 sequence (looked up): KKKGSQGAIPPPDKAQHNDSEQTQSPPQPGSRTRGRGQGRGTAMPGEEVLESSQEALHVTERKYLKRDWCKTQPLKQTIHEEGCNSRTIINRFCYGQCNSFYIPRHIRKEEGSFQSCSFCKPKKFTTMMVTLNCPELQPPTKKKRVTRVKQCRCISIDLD

Test [1] addresses T2, recombinant human Gremlin-1 (human, UniProt O60565 25-184).
T2 sequence: T1 sequence (looked up) with P27Q, T33N

Another test concerns the target T3, BMP4/7 heterodimer (human, UniProt P12644 293-408; P18075 293-431).
T3 sequence (looked up) 1: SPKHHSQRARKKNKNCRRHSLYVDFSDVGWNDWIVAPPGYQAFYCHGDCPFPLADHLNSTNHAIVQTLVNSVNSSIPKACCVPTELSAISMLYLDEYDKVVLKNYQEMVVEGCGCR
T3 sequence (looked up) 2: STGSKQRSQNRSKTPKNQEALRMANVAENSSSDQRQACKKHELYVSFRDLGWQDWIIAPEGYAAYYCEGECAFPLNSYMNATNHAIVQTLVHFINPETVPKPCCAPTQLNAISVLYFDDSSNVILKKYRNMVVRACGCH

B1: Ab7326 (antibody, V domains shown)
VH: QVQLVESGAEVKKPGATVKISCKVSGYTFTDYYMHWVQQAPGKGLEWMGLVDPEDGETIYAEKFQGRVTITADTSTDTAYMELSSLRSEDTAVYYCATDARGSGSYYPNHFDYWGQGTLVTVSS
VL: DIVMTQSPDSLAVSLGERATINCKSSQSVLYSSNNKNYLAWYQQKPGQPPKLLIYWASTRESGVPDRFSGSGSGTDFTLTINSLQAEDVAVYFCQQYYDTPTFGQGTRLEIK
Regarding B1, in the test with mouse Gremlin, the “IC50, restoration of BMP signalling blocked by mouse Gremlin, HEK-ID1 reporter gene assay” value was found to be 0.2 nM. The “IC50, restoration of BMP signalling blocked by human Gremlin, HEK-ID1 reporter gene assay” value in test [1] is 1.3 nM.

B2: truncated human Gremlin-1 with N-terminal 6His-TEV tag (ligand)
chain: MGSSHHHHHHSSGENLYFQGSAMPGEEVLESSQEALHVTERKYLKRDWCKTQPLKQTIHEEGCNSRTIINRFCYGQCNSFYIPRHIRKEEGSFQSCSFCKPKKFTTMMVTLNCPELQPPTKKKRVTRVKQCRCISIDLD
For the molecule B2, the “IC50 (geometric mean, N=2), inhibition of BMP4/7 signalling, Hek-Id1 reporter gene assay” value with BMP4/7 heterodimer was 1.7 nM.
